Article PMC2873508

Legend:
[1] = target: feline CD134 on MCC cells (feline)
[2] = target: CD134 on MYA-1 cells (not stated (endogenous in MYA-1 cells))
[3] = target: CD134 on MYA-1 cells (not stated (endogenous in MYA-1 cells)); remark: listed apart in the source
[4] = target: FIV GL8 Env (molecular clone 414) (feline immunodeficiency virus (FIV), strain GL8)
[5] = target: Chimaeric GL8 (ABSN) Env with the V4-V5 region of variant B14 (feline immunodeficiency virus (FIV), strain GL8 | feline immunodeficiency virus (FIV), strain GL8, in vivo variant)

| Substance | ratio of luciferase counts (CPM) of HIV(FIV) pseudotype infection on MCC cells with feline CD134 divided by counts on MCC cells with the feCRD1 chimera (feline CRD1 x human CD134); dependency on CRD2 [1] | inhibition of HIV(FIV) pseudotype infection of MYA-1 cells by anti-CD134 antibody 7D6 (series 0.4 to 50 μg/ml; reduced by 90% at 0.4 μg/ml) (% reduction of infection) [2] | percent infection of MYA-1 cells by HIV(FIV) pseudotype with anti-CD134 antibody, relative to no antagonist (Fig. 7A) [3] | percent infection of MYA-1 cells by HIV(FIV) pseudotype (Env with cell CD134) with sFc-CD134, relative to no antagonist (Fig. 7B) [4] | percent infection of MYA-1 cells by HIV(FIV) pseudotype (Env with cell CD134) with sFc-CD134, relative to no antagonist (Fig. 7B) [5] |
| --- | --- | --- | --- | --- | --- |
| FIV B2542 Env (natural protein) | 5 | – | – | – | – |
| FIV Env of A613 variant B14 (natural protein) | 10 | > 99 | 19.5 % infection | – | – |
| FIV Env of A613 variant B23 (natural protein) | 223 | – | – | – | – |
| soluble Fc-CD134 (Fc fusion) | – | – | – | 18.4 % infection | 65.1 % infection |
